{"source": "patent US20220064334A1", "about": "(Janssen / Centocor, published 2022)", "key": {"[1]": {"biological_target": "T1, KLK2 CAR KL2B413-LH expressed on SupT1 cells", "T1 construct": "also called SupT1-KL2B413 LH; KL2B413-LH SupT1", "T1 sequence (chain, as listed by the source limits assumed)": "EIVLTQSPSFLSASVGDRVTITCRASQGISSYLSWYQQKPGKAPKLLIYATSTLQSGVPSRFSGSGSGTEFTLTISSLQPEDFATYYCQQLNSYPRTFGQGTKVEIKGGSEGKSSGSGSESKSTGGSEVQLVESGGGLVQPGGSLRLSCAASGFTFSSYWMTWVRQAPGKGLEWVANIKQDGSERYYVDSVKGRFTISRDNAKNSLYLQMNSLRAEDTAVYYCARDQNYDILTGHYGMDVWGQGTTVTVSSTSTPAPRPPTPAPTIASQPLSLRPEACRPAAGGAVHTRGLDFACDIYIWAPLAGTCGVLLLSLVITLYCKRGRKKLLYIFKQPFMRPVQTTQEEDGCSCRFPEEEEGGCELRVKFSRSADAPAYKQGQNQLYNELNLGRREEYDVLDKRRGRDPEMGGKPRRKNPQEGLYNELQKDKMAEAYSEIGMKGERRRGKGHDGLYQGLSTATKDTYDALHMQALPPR", "test": "flow cytometry on KL2B413-LH CAR SupT1 cells, directly PE-labelled antibody, PE median fluorescence", "protocol": "Multiple lots of PE-A002B39 were compared to assess differences in binding to KL2B413LH-SupT1 cells across batches. KL2B413-LH SupT1 cells (200,000 cells/well) were stained with LIVE/DEAD Fixable Near-IR viability dye and incubated with increasing concentrations of PE-A002B39 for 30 minutes on ice. After incubation, washing, and fixation, the samples were acquired on a 10 color FACSCanto II flow cytometer. Analysis was done using FlowJo analysis software and the PE median fluorescent intensity of live SupT1 cells is plotted in FIG. 7."}, "[2]": {"biological_target": "T1, KLK2 CAR KL2B413-LH expressed on SupT1 …", "test": "flow cytometry on KL2B413-LH SupT1 cells, PE goat anti-mouse IgG detection, PE median fluorescence", "protocol": "SupT1 cells expressing KL2B413LH were compared to parental CAR-SupT1 cells. Cells (100,000 cells/well) were stained with LIVE/DEAD Fixable Near-IR viability dye (Life Technologies L10119) and then incubated with increasing concentrations of A002B39 for 30 minutes on ice. Following incubation, the samples were washed with BSA stain buffer (BD Biosciences #554657) and stained with PE-goat anti-mouse IgG polyclonal antibody (Biolegend #405307) to detect bound antibody on live CAR+SupT1 cells. After incubation, washing, and fixation (Cytofix, BD Biosciences), the samples were acquired on a 10 color FACSCanto II (BD Biosciences) flow cytometer. Analysis was done using FlowJo and the PE median fluorescent intensity of live SupT1 cells is plotted in FIG. 4. […] No binding was detected on CAR-SupT1 parental cells."}, "[3]": {"biological_target": "T2, KL2B513", "T2 construct": "KL2B413-derived scFv-Fc fusion protein with the variable regions in VL-VH orientation; also called KL2B413-LH-scFv; KL2B413-LH scFv-Fc fusion protein; not shown: Fc part of the scFv-Fc fusion and its junction to the scFv", "T2 sequence (scFv, as listed by the source limits assumed)": "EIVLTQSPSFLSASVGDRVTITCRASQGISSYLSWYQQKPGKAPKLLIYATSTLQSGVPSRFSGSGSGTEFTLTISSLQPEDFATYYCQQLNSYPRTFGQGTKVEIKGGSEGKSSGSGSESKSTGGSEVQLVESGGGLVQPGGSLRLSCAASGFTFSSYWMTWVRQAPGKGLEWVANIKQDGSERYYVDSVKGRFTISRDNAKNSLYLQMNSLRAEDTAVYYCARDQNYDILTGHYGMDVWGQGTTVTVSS", "test": "SPR, Biacore; antibody captured on anti-mouse Fc, scFv-Fc fusion as analyte", "protocol": "Anti-Mouse Fc antibody directly immobilized on M5 sensor chip. Library Antibodies (Mouse IgG2a) diluted to 1 ug/ml to reach approximately 20-50 RU. Antigens (scFV Fc Fusions) are associated at 500 nM to 0.8 nM, 1:5 dilutions for 3 minutes. Dissociation for 30 mins."}, "[4]": {"biological_target": "T3, KL2B610", "T3 construct": "KL2B413-derived scFv-Fc fusion protein with the variable regions in VH-VL orientation; also called KL2B413-HL-scFv; KLB610; not shown: Fc part of the scFv-Fc fusion and its junction to the scFv", "T3 sequence (scFv, as listed by the source limits assumed)": "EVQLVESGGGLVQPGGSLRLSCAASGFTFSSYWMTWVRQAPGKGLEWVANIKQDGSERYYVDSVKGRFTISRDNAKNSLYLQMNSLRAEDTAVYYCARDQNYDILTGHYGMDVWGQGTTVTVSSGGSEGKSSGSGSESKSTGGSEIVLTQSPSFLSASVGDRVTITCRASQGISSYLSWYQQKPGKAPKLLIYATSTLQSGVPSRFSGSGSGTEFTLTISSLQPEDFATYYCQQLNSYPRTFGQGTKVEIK", "test": "SPR, ProteOn XPR36; antibody captured on anti-mouse Fc, scFv-Fc fusion as analyte", "protocol": "(§1) ProteOn XPR36 system (BioRad) was used to perform binding assays. ProteOn GLC chips (BioRad, Cat#176-5011) were coated with Anti-Mouse Fc antibody. Library Antibodies (Mouse IgG2a) were diluted to 0.25 ug/ml to 1 ug/ml to reach approximately 100-200RL. Antigens (scFv-Fc Fusions) were associated at 1000 nM to 0.4 nM, 1:4 dilutions for 3 minutes, followed by dissociation for 30 mins. The results of the assay (Table 1 below) show similar binding affinity of A002B39 with both KLB513 and KLB610."}, "[5]": {"biological_target": "T2, KL2B513", "test": "SPR, ProteOn XPR36; antibody captured on anti-mouse Fc, scFv-Fc fusion as analyte", "protocol": "as §1"}}}
{"binder": "PE-A002B39 (antibody, mouse IgG2a, kappa, V domains shown, R-phycoerythrin conjugate, 1:1 PE:antibody; attachment site and chain not stated, also called A002B39 conjugated to R-PE) VH: EVQLVQSGAEVKKPGSSVKVSCKASGGTFSSYAISWVRQAPGQGLEWMGGIIPIFGTANYAQKFQGRVTITADESTSTAYMELSSLRSEDTAVYYCARVQWGLDYWGQGTLVTVSS VL: EIVLTQSPATLSLSPGERATLSCRASQSVDSALAWYQQKPGQAPRLLIYGASNRATGIPARFSGSGSGTDFTLTISSLEPEDFAVYYCQQRFNWPITFGQGTKVEIKR", "values": [{"measurement": "EC50", "setting": "[1]", "value": 1.6, "unit": "µg/mL"}]}
{"binder": "A002B39 (antibody, mouse IgG2a, kappa, V domains shown, expressed in HEK293 Expi or CHO; also called A002M39) VH: EVQLVQSGAEVKKPGSSVKVSCKASGGTFSSYAISWVRQAPGQGLEWMGGIIPIFGTANYAQKFQGRVTITADESTSTAYMELSSLRSEDTAVYYCARVQWGLDYWGQGTLVTVSS VL: EIVLTQSPATLSLSPGERATLSCRASQSVDSALAWYQQKPGQAPRLLIYGASNRATGIPARFSGSGSGTDFTLTISSLEPEDFAVYYCQQRFNWPITFGQGTKVEIKR", "values": [{"measurement": "EC50", "setting": "[2]", "value": 0.4, "unit": "µg/mL"}, {"measurement": "Kd", "setting": "[3]", "value": 3.49, "unit": "nM"}, {"measurement": "koff", "setting": "[3]", "value": 0.000202, "unit": "s⁻¹"}, {"measurement": "kon", "setting": "[3]", "value": 57900, "unit": "M⁻¹ s⁻¹"}, {"measurement": "Kd", "setting": "[4]", "value": 1.11, "unit": "nM"}, {"measurement": "koff", "setting": "[4]", "value": 0.000315, "unit": "s⁻¹"}, {"measurement": "kon", "setting": "[4]", "value": 285000, "unit": "M⁻¹ s⁻¹"}, {"measurement": "Kd", "setting": "[5]", "value": 0.99, "unit": "nM"}, {"measurement": "koff", "setting": "[5]", "value": 0.000333, "unit": "s⁻¹"}, {"measurement": "kon", "setting": "[5]", "value": 339000, "unit": "M⁻¹ s⁻¹"}]}
